Broadly, the EC50 is the concentration at which the effect is half-maximal. The low end stands for greater potency, the high end for weaker potency.

Assay [1] has as its target T1, human OX40 on cells (CHO-hOX40, 293HEK-hOX40, Jurkat-hOX40, activated primary CD4+ T cells) (human, UniProt P43489 29-277).
T1 construct: whole, on cells; The cell type is told in each assay; also called CHO-OX40
T1 sequence (looked up): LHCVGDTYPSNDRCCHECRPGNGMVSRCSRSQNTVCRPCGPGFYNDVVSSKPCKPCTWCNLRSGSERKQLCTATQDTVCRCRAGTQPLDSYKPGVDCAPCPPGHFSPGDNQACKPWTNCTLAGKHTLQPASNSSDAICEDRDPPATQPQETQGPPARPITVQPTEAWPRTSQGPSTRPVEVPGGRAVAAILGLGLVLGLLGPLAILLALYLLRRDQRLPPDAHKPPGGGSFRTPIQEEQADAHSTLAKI
Nature of the assay: flow cytometry, CHO-hOX40, 0.390625 nM. (A flow cytometer gives signals particle by particle.)

The target of assay [2] is T1, human OX40 on cells (CHO-hOX40, …). Nature of the assay: flow cytometry, CHO-hOX40, 25 nM.
Assay [3] has the same target. The assay is described as follows: flow cytometry, CHO-hOX40, 0.09765625 nM.
The target is the same in assay [4]. The assay is described as follows: flow cytometry, CHO-hOX40, 1.5625 nM.
For assay [5] the target is unchanged. Nature of the assay: flow cytometry, CHO-hOX40, IgG2 made in 293HEK.
Assay [6] shares this target. Nature of the assay: flow cytometry, CHO-hOX40, 100 nM.
The target is the same in assay [7]. Nature of the assay: flow cytometry, CHO-hOX40, 200 nM.
The target is the same in assay [8]. Nature of the assay: flow cytometry, CHO-hOX40, 50 nM.
Assay [9] has the same target. The assay is described as follows: flow cytometry, CHO-hOX40, 0.024414063 nM.
Assay [10] has the same target. The assay is described as follows: flow cytometry, CHO-hOX40, 3.125 nM.
For assay [11] the target is unchanged. The assay is described as follows: flow cytometry, CHO-hOX40, 0.78125 nM.
For assay [12] the target is unchanged. The assay is described as follows: flow cytometry, CHO-hOX40, 12.5 nM.
The target is the same in assay [13]. The assay is described as follows: flow cytometry, CHO-hOX40, 0.1953125 nM.
Assay [14] shares this target. Nature of the assay: flow cytometry, CHO-hOX40, 0.048828125 nM.
For assay [15] the target is unchanged. The assay is described as follows: flow cytometry, CHO-hOX40, 6.25 nM.
Assay [16] has the same target. Nature of the assay: cell-based or functional assay.

B1: ADI-20051, IgG2 format (antibody)
heavy: QVQLQQWGAGLLKPSETLSLTCAVYGGSFSGYYWSWIRQPPGKGLEWIGEIDHSGSTNYNPSLKSRVTISVDTSKNQFSLKLSSVTAADTAVYYCARDGGGGYASPFDYWGQGTLVTVSSASTKGPSVFPLAPCSRSTSESTAALGCLVKDYFPEPVTVSWNSGALTSGVHTFPAVLQSSGLYSLSSVVTVPSSNFGTQTYTCNVDHKPSNTKVDKTVERKCCVECPPCPAPPVAGPSVFLFPPKPKDTLMISRTPEVTCVVVDVSHEDPEVQFNWYVDGVEVHNAKTKPREEQFNSTFRVVSVLTVVHQDWLNGKEYKCKVSNKGLPAPIEKTISKTKGQPREPQVYTLPPSREEMTKNQVSLTCLVKGFYPSDIAVEWESNGQPENNYKTTPPMLDSDGSFFLYSKLTVDKSRWQQGNVFSCSVMHEALHNHYTQKSLSLSPG
light: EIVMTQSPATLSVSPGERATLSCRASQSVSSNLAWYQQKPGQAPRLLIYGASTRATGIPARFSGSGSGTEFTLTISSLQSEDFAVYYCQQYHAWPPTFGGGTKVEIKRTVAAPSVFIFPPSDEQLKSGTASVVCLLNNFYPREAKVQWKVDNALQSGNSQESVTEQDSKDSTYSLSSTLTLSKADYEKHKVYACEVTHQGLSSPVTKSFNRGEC
notes: Made in 293HEK cells
On to B1, for which the MFI in assay [1] worked out at 156000 MFI; in assay [2], 2.33e+06 MFI; in assay [3], 40700 MFI; in assay [4] it was 611000 MFI; in assay [6] it was 2.35e+06 MFI; in [7] it was 2.51e+06 MFI. The MFI in assay [8] was 2.1e+06 MFI; in assay [9], 20900 MFI; in [10] it was 913000 MFI; in assay [11], 315000 MFI; in assay [12], 1.62e+06 MFI; in assay [13] it was 80500 MFI. Also, the MFI in assay [14] is 19400 MFI; in [15], 1.33e+06 MFI. In addition, the EC50 in assay [5] turned out to be 5.49 nM.

B2: ADI-20118, IgG2 format (antibody)
heavy: QVQLVQSGAEVKKPGASVKVSCKASGYTFTSYAISWVRQAPGQGLEWMGWISAYNGNTNYAQKLQGRVTMTTDTSTSTAYMELRSLRSDDTAVYYCARSGGGSGPNWFDPWGQGTLVTVSSASTKGPSVFPLAPCSRSTSESTAALGCLVKDYFPEPVTVSWNSGALTSGVHTFPAVLQSSGLYSLSSVVTVPSSNFGTQTYTCNVDHKPSNTKVDKTVERKCCVECPPCPAPPVAGPSVFLFPPKPKDTLMISRTPEVTCVVVDVSHEDPEVQFNWYVDGVEVHNAKTKPREEQFNSTFRVVSVLTVVHQDWLNGKEYKCKVSNKGLPAPIEKTISKTKGQPREPQVYTLPPSREEMTKNQVSLTCLVKGFYPSDIAVEWESNGQPENNYKTTPPMLDSDGSFFLYSKLTVDKSRWQQGNVFSCSVMHEALHNHYTQKSLSLSPG
light: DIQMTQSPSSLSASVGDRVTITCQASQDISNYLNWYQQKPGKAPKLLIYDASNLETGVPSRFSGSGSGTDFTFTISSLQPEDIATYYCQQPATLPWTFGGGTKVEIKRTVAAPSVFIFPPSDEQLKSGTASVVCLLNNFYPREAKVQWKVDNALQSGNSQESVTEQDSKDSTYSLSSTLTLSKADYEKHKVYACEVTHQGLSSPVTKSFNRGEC
notes: Made in 293HEK cells
Consider B2, for which the MFI in [1] was 120000 MFI; in assay [2] it was 1.5e+06 MFI; in assay [3] it was 36800 MFI; in assay [4] it was 352000 MFI; in [6] it was 1.53e+06 MFI; in [7] it was 1.72e+06 MFI. The MFI was found to be 1.38e+06 MFI in [8]; 16500 MFI in assay [9]; 600000 MFI in assay [10]; 207000 MFI in assay [11]; 1.13e+06 MFI in assay [12]; 60400 MFI in assay [13]. Besides, the MFI in assay [14] was 18400 MFI; in assay [15] it was 889000 MFI. In [5], this molecule came in with an EC50 of 5.84 nM.

B3: ADI-20112, IgG2 format (antibody)
heavy: QVQLVESGGGVVQPGRSLRLSCAASGFTFSSYGMHWVRQAPGKGLEWVAVISYDGSNKYYADSVKGRFTISRDNSKNTLYLQMNSLRAEDTAVYYCARGRPWYSETGTSAFDIWGQGTMVTVSSASTKGPSVFPLAPCSRSTSESTAALGCLVKDYFPEPVTVSWNSGALTSGVHTFPAVLQSSGLYSLSSVVTVPSSNFGTQTYTCNVDHKPSNTKVDKTVERKCCVECPPCPAPPVAGPSVFLFPPKPKDTLMISRTPEVTCVVVDVSHEDPEVQFNWYVDGVEVHNAKTKPREEQFNSTFRVVSVLTVVHQDWLNGKEYKCKVSNKGLPAPIEKTISKTKGQPREPQVYTLPPSREEMTKNQVSLTCLVKGFYPSDIAVEWESNGQPENNYKTTPPMLDSDGSFFLYSKLTVDKSRWQQGNVFSCSVMHEALHNHYTQKSLSLSPG
light: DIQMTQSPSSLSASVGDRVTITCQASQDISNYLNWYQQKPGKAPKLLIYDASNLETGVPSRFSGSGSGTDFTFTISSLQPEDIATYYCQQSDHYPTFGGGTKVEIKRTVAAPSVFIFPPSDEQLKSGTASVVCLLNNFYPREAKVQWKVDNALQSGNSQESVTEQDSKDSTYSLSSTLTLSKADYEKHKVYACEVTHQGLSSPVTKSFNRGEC
notes: Made in 293HEK or CHO cells; also called ADI-20112-g2
In the case of B3, the MFI in assay [1] turned out to be 189000 MFI; in [2], 1.83e+06 MFI; in assay [3], 48500 MFI; in [4], 602000 MFI; in assay [6] it was 1.78e+06 MFI; in [7] it was 1.79e+06 MFI. The MFI in [8] came to 1.55e+06 MFI; in assay [9], 24600 MFI; in assay [10], 985000 MFI; in assay [11], 314000 MFI; in assay [12], 1.34e+06 MFI; in assay [13] it was 94200 MFI. The MFI in [14] was found to be 25700 MFI; in assay [15] it was 1.43e+06 MFI. For the same molecule, the EC50 in assay [5] was determined as 2.78 nM. Moreover, the “EC50, NFkB-luciferase reporter in Jurkat-hOX40 mixed with Raji cells” value in assay [16] worked out at 0.246 nM.

These data come from patent US20200140562A1 (Innovent, published 2020).
